± gives the standard deviation of the averaged measurements.
B1: library; a variant is named by its letters at N, in order (parent)
chain: GCUGUCACCGGUGUAUUACCCUAGUGGUCGACCGGUCUGAUGAGUCUNNNNNNAGACGAAACAGC

Experiments:
hypoxanthine [1] = variants of: B1; experiment: normalized RNA/DNA level with ligand (relative to sTRSVctl = 100) (log10 (% of sTRSVctl)); ligand: hypoxanthine (xanthine aptamer); higher = less ribozyme self-cleavage, higher mRNA level; settings: ligand concentration (+) RNA-Seq: 5 mM, HEK293T, reporter: mCherry (pCS4076), ligand present: yes
Method in brief: (§1)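 HEK293T cells were transfected with library plasmids carrying ribozyme switches linked to an mCherry reporter, or an eGFP reporter in some ligand experiments, at 4 µg per well of a 6-well plate, with any ligand added 1 h beforehand. After 72 h, total RNA was extracted with EDTA, reverse-transcribed, amplified, barcoded and sequenced. RNA level was defined as RNA reads over DNA reads, normalized to a spiked-in non-cleaving sequence or to the top-ranked sequences. That value was multiplied by 100 and converted to log10, the top set was 25 sequences, and only sequences with ≥100 DNA reads were retained.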

hypoxanthine [2] = variants of: B1; experiment: normalized RNA/DNA level without ligand (relative to sTRSVctl = 100) (log10 (% of sTRSVctl)); ligand: hypoxanthine (xanthine aptamer); higher = less ribozyme self-cleavage, higher mRNA level; settings: HEK293T, reporter: mCherry (pCS4076), ligand present: no
Method in brief: as §1

Row | Variant | normalized RNA/DNA level with ligand (log10) (hypoxanthine [1]) | normalized RNA/DNA level without ligand (log10) (hypoxanthine [2])
1 | UGCCAA | 1.906 ± 0.018 | 1.84 ± 0.021
2 | UGCCAU | 1.909 ± 0.0083 | 1.817 ± 0.015
3 | UGGAAG | 1.871 ± 0.018 | 1.556 ± 0.01
4 | UGGAAC | 1.89 ± 0.032 | 1.78 ± 0.034
5 | UGGAAA | 1.91 ± 0.02 | 1.7 ± 0.039
6 | UGAUCU | 2.022 ± 0.0077 | 1.939 ± 0.013
7 | UGAUCC | 1.91 ± 0.087 | 1.921 ± 0.012
8 | UGAUCA | 1.98 ± 0.031 | 1.899 ± 0.0037
9 | GGCAUA | 1.941 ± 0.0052 | 1.86 ± 0.032
10 | GGCAUU | 1.958 ± 0.0075 | 1.925 ± 0.0063
11 | GGCAUC | 1.97 ± 0.074 | 1.91 ± 0.057
12 | AGAUAU | 1.88 ± 0.032 | 1.798 ± 0.015
13 | AGAUAG | 1.82 ± 0.025 | 1.441 ± 0.0087
14 | GGCAGG | 1.874 ± 0.0049 | 1.496 ± 0.0048
15 | GGCUAA | 1.94 ± 0.046 | 1.86 ± 0.017
16 | GGCUAU | 1.953 ± 0.0089 | 1.876 ± 0.005
17 | GGCUAC | 1.933 ± 0.0082 | 1.79 ± 0.093
18 | GGCUAG | 1.812 ± 0.005 | 1.54 ± 0.039
19 | CGGAGA | 1.93 ± 0.044 | 1.617 ± 0.012
20 | CGGAGC | 1.944 ± 0.019 | 1.67 ± 0.046
21 | CGAUCA | 1.9299 ± 0.00072 | 1.7 ± 0.048
22 | CGAUCG | 1.94 ± 0.027 | 1.84 ± 0.038
23 | CGAUCC | 2.013 ± 0.0062 | 1.898 ± 0.0043

Row | Variant | normalized RNA/DNA level with ligand (log10) (hypoxanthine [1]) | normalized RNA/DNA level without ligand (log10) (hypoxanthine [2])
24 | CGAUCU | 1.95 ± 0.046 | 1.877 ± 0.0033
25 | AGAUUU | 1.92 ± 0.021 | 1.893 ± 0.011
26 | AGAUUG | 1.88 ± 0.042 | 1.47 ± 0.022
27 | AGAUUA | 1.91 ± 0.024 | 1.8 ± 0.031
28 | GGCUUA | 1.967 ± 0.014 | 1.88 ± 0.025
29 | GGCUUG | 1.93 ± 0.071 | 1.66 ± 0.04
30 | GGCUUC | 1.99 ± 0.03 | 1.98 ± 0.041
31 | GGCUUU | 2.025 ± 0.0095 | 1.982 ± 0.006
32 | CGAUGC | 1.9 ± 0.07 | 1.829 ± 0.0038
33 | CGAUGA | 1.93 ± 0.018 | 1.79 ± 0.057
34 | CGAUGU | 1.98 ± 0.04 | 1.878 ± 0.016
35 | GGAUAU | 1.9 ± 0.023 | 1.78 ± 0.028
36 | AGCGUU | 1.93 ± 0.028 | 1.805 ± 0.011
37 | AGCGUA | 1.94 ± 0.027 | 1.77 ± 0.034
38 | CGCGAG | 1.84 ± 0.06 | 1.67 ± 0.011
39 | CGCGAU | 1.904 ± 0.0019 | 1.79 ± 0.036
40 | CGCGAA | 1.87 ± 0.029 | 1.7 ± 0.028
41 | CGCGAC | 1.97 ± 0.067 | 1.75 ± 0.059
42 | UGCCCC | 2.011 ± 0.0086 | 1.9 ± 0.024
43 | UGCCCG | 1.9 ± 0.037 | 1.831 ± 0.014
44 | UGCCCU | 2.003 ± 0.013 | 1.94 ± 0.028
45 | CGCUCA | 2.01 ± 0.059 | 1.905 ± 0.012
46 | CGCUCU | 2.02 ± 0.061 | 1.93 ± 0.048

Row | Variant | normalized RNA/DNA level with ligand (log10) (hypoxanthine [1]) | normalized RNA/DNA level without ligand (log10) (hypoxanthine [2])
47 | CGCUCC | 1.956 ± 0.013 | 1.93 ± 0.027
48 | AGCACU | 1.96 ± 0.039 | 1.8853 ± 0.00075
49 | UGAUAA | 1.91 ± 0.028 | 1.8144 ± 0.0015
50 | UGAUAC | 1.926 ± 0.0041 | 1.848 ± 0.011
51 | UGAUAG | 1.88 ± 0.04 | 1.7 ± 0.041
52 | CGAUUG | 1.92 ± 0.045 | 1.922 ± 0.0055
53 | GGCACG | 1.92 ± 0.022 | 1.66 ± 0.029
54 | GGCACU | 2.011 ± 0.0022 | 1.99 ± 0.025
55 | GGCACC | 1.92 ± 0.06 | 1.85 ± 0.021
56 | GGCACA | 1.885 ± 0.002 | 1.86 ± 0.03
57 | UGCAUU | 1.981 ± 0.01 | 1.88 ± 0.018
58 | UGCAUC | 2.02 ± 0.031 | 2.04 ± 0.052
59 | UGCAUA | 1.964 ± 0.0062 | 1.83 ± 0.022
60 | UGCAUG | 1.9 ± 0.028 | 1.75 ± 0.024
61 | AGCGAU | 1.9 ± 0.037 | 1.73 ± 0.076
62 | UGCAGC | 1.98 ± 0.074 | 1.83 ± 0.055
63 | GGCUCU | 2.03 ± 0.066 | 1.99 ± 0.064
64 | GGCUCG | 1.98 ± 0.027 | 1.834 ± 0.012
65 | GGCUCC | 1.989 ± 0.014 | 1.898 ± 0.018
66 | GGCCCC | 1.95 ± 0.12 | 1.97 ± 0.021
67 | GGCCCA | 1.95 ± 0.026 | 1.97 ± 0.024
68 | GGCCCG | 1.974 ± 0.011 | 1.88 ± 0.03
69 | GGCCCU | 2.037 ± 0.02 | 2 ± 0.034

Row | Variant | normalized RNA/DNA level with ligand (log10) (hypoxanthine [1]) | normalized RNA/DNA level without ligand (log10) (hypoxanthine [2])
70 | GGAUCU | 1.95 ± 0.051 | 1.92 ± 0.023
71 | GGAUCA | 1.96 ± 0.04 | 1.84 ± 0.037
72 | GGAUCC | 1.96 ± 0.049 | 1.95 ± 0.018
73 | AGCCAC | 1.931 ± 0.014 | 1.8318 ± 6.2e-05
74 | UGGACU | 1.93 ± 0.033 | 1.9 ± 0.032
75 | UGGACA | 1.95 ± 0.021 | 1.812 ± 0.0084
76 | UGGACC | 1.98 ± 0.049 | 1.95 ± 0.017
77 | GGCCAC | 1.997 ± 0.011 | 1.861 ± 0.0085
78 | GGCCAU | 1.957 ± 0.003 | 1.919 ± 0.018
79 | GGCCAA | 1.934 ± 0.015 | 1.87 ± 0.022
80 | GGCCAG | 1.89 ± 0.026 | 1.67 ± 0.033
81 | UGCUAG | 1.94 ± 0.025 | 1.658 ± 0.0069
82 | UGCUAC | 1.937 ± 0.0075 | 1.847 ± 0.014
83 | UGCUAA | 1.92 ± 0.066 | 1.832 ± 0.0053
84 | CGCUGG | 1.889 ± 0.0061 | 1.42 ± 0.024
85 | CGCUGU | 1.94 ± 0.06 | 1.9375 ± 0.00087
86 | CGCAGU | 1.938 ± 0.0028 | 1.86 ± 0.026
87 | CGCAGG | 1.82 ± 0.096 | 1.348 ± 0.011
88 | CGCAGC | 1.96 ± 0.041 | 1.87 ± 0.025
89 | CGCAGA | 1.9 ± 0.029 | 1.81 ± 0.082
90 | AGCAGU | 1.83 ± 0.03 | 1.44 ± 0.036
91 | GGCGCC | 2.004 ± 0.0022 | 1.93 ± 0.024
92 | GGCGCU | 1.973 ± 0.003 | 2.03 ± 0.022

Row | Variant | normalized RNA/DNA level with ligand (log10) (hypoxanthine [1]) | normalized RNA/DNA level without ligand (log10) (hypoxanthine [2])
93 | GGCGCG | 1.95 ± 0.028 | 1.81 ± 0.0088
94 | GGGACU | 1.872 ± 0.0089 | 1.91 ± 0.024
95 | GGGACA | 1.938 ± 0.016 | 1.802 ± 0.011
96 | GGGACC | 1.98 ± 0.069 | 1.86 ± 0.052
97 | CGCAAC | 1.928 ± 0.01 | 1.88 ± 0.024
98 | CGCAAU | 1.94 ± 0.015 | 1.77 ± 0.036
99 | CGCAAG | 1.847 ± 0.014 | 1.78 ± 0.1
100 | UGCUCG | 1.941 ± 0.016 | 1.77 ± 0.046
101 | UGCUCC | 1.972 ± 0.002 | 1.94 ± 0.037
102 | UGCUCU | 1.91 ± 0.042 | 1.949 ± 0.017
103 | AGCAAA | 1.92 ± 0.047 | 1.7327 ± 0.00011
104 | GGAUGU | 1.93 ± 0.033 | 1.746 ± 0.0056
105 | CGCCUU | 1.94 ± 0.033 | 1.92 ± 0.068
106 | CGCCUG | 2 ± 0.053 | 1.9 ± 0.04
107 | CGCCUA | 1.98 ± 0.092 | 1.848 ± 0.014
108 | AGCUAG | 1.83 ± 0.066 | 1.508 ± 0.0088
109 | AGCUAA | 1.912 ± 0.0024 | 1.845 ± 0.013
110 | AGCUAU | 1.96 ± 0.012 | 1.825 ± 0.0081
111 | GGCGGU | 1.957 ± 0.014 | 1.949 ± 0.017
112 | GGCGGC | 1.885 ± 0.015 | 1.525 ± 0.0082
113 | GGCGGG | 1.93 ± 0.034 | 1.83 ± 0.061
114 | UGCCGC | 2.01 ± 0.032 | 1.927 ± 0.014
115 | UGCCGU | 1.9 ± 0.027 | 1.74 ± 0.026

— the supplement of paper PMC6757056
